± gives the uncertainty stated by the source.
B1: GA-binding protein alpha chain, residues 172 to 250; numbered along this chain, Q06546 (parent)
chain: GYRKEQERLGIPYDPIQWSTDQVLHWVVWVMKEFSMTDIDLTTLNISGRELCSLNQEDFFQRVPRGEILWSHLELLRKY

Variants of: B1
Assay: abundance fitness (aPCA) (normalised: wild type 0, dead -1); higher = more abundant; growth selection in yeast, the domain comes from the species named
Details: Homo sapiens

| Variant | abundance fitness |
| --- | --- |
| GYRKYQERLGIPYDPIQWSTDQVLHWVVWVMKEFSMTDIDLTTLNISGRELCSLNQEDFFQRVPRGEILWSHLELLRKY [E5Y] | -0.149 ± 0.096 |
| GYRKEAERLGIPYDPIQWSTDQVLHWVVWVMKEFSMTDIDLTTLNISGRELCSLNQEDFFQRVPRGEILWSHLELLRKY [Q6A] | -0.076 ± 0.041 |
| GYRKECERLGIPYDPIQWSTDQVLHWVVWVMKEFSMTDIDLTTLNISGRELCSLNQEDFFQRVPRGEILWSHLELLRKY [Q6C] | -0.118 ± 0.067 |
| GYRKEDERLGIPYDPIQWSTDQVLHWVVWVMKEFSMTDIDLTTLNISGRELCSLNQEDFFQRVPRGEILWSHLELLRKY [Q6D] | -0.678 ± 0.31 |
| GYRKEEERLGIPYDPIQWSTDQVLHWVVWVMKEFSMTDIDLTTLNISGRELCSLNQEDFFQRVPRGEILWSHLELLRKY [Q6E] | -0.26 ± 0.053 |
| GYRKEFERLGIPYDPIQWSTDQVLHWVVWVMKEFSMTDIDLTTLNISGRELCSLNQEDFFQRVPRGEILWSHLELLRKY [Q6F] | -0.184 ± 0.069 |
| GYRKEHERLGIPYDPIQWSTDQVLHWVVWVMKEFSMTDIDLTTLNISGRELCSLNQEDFFQRVPRGEILWSHLELLRKY [Q6H] | -0.852 ± 0.11 |
| GYRKEIERLGIPYDPIQWSTDQVLHWVVWVMKEFSMTDIDLTTLNISGRELCSLNQEDFFQRVPRGEILWSHLELLRKY [Q6I] | 0.078 ± 0.091 |
| GYRKEKERLGIPYDPIQWSTDQVLHWVVWVMKEFSMTDIDLTTLNISGRELCSLNQEDFFQRVPRGEILWSHLELLRKY [Q6K] | -0.96 ± 0.13 |
| GYRKELERLGIPYDPIQWSTDQVLHWVVWVMKEFSMTDIDLTTLNISGRELCSLNQEDFFQRVPRGEILWSHLELLRKY [Q6L] | 0.037 ± 0.036 |
| GYRKEMERLGIPYDPIQWSTDQVLHWVVWVMKEFSMTDIDLTTLNISGRELCSLNQEDFFQRVPRGEILWSHLELLRKY [Q6M] | -0.015 ± 0.09 |
| GYRKENERLGIPYDPIQWSTDQVLHWVVWVMKEFSMTDIDLTTLNISGRELCSLNQEDFFQRVPRGEILWSHLELLRKY [Q6N] | -0.844 ± 0.2 |
| GYRKEPERLGIPYDPIQWSTDQVLHWVVWVMKEFSMTDIDLTTLNISGRELCSLNQEDFFQRVPRGEILWSHLELLRKY [Q6P] | -0.739 ± 0.12 |
| GYRKESERLGIPYDPIQWSTDQVLHWVVWVMKEFSMTDIDLTTLNISGRELCSLNQEDFFQRVPRGEILWSHLELLRKY [Q6S] | -0.221 ± 0.042 |
| GYRKETERLGIPYDPIQWSTDQVLHWVVWVMKEFSMTDIDLTTLNISGRELCSLNQEDFFQRVPRGEILWSHLELLRKY [Q6T] | -0.172 ± 0.054 |
| GYRKEVERLGIPYDPIQWSTDQVLHWVVWVMKEFSMTDIDLTTLNISGRELCSLNQEDFFQRVPRGEILWSHLELLRKY [Q6V] | -0.069 ± 0.036 |
| GYRKEWERLGIPYDPIQWSTDQVLHWVVWVMKEFSMTDIDLTTLNISGRELCSLNQEDFFQRVPRGEILWSHLELLRKY [Q6W] | -0.498 ± 0.071 |
| GYRKEQARLGIPYDPIQWSTDQVLHWVVWVMKEFSMTDIDLTTLNISGRELCSLNQEDFFQRVPRGEILWSHLELLRKY [E7A] | -0.071 ± 0.044 |

| Variant | abundance fitness |
| --- | --- |
| GYRKEQDRLGIPYDPIQWSTDQVLHWVVWVMKEFSMTDIDLTTLNISGRELCSLNQEDFFQRVPRGEILWSHLELLRKY [E7D] | 0.031 ± 0.073 |
| GYRKEQFRLGIPYDPIQWSTDQVLHWVVWVMKEFSMTDIDLTTLNISGRELCSLNQEDFFQRVPRGEILWSHLELLRKY [E7F] | -0.252 ± 0.063 |
| GYRKEQGRLGIPYDPIQWSTDQVLHWVVWVMKEFSMTDIDLTTLNISGRELCSLNQEDFFQRVPRGEILWSHLELLRKY [E7G] | -0.315 ± 0.029 |
| GYRKEQIRLGIPYDPIQWSTDQVLHWVVWVMKEFSMTDIDLTTLNISGRELCSLNQEDFFQRVPRGEILWSHLELLRKY [E7I] | -0.161 ± 0.12 |
| GYRKEQKRLGIPYDPIQWSTDQVLHWVVWVMKEFSMTDIDLTTLNISGRELCSLNQEDFFQRVPRGEILWSHLELLRKY [E7K] | -0.494 ± 0.28 |
| GYRKEQMRLGIPYDPIQWSTDQVLHWVVWVMKEFSMTDIDLTTLNISGRELCSLNQEDFFQRVPRGEILWSHLELLRKY [E7M] | -0.098 ± 0.057 |
| GYRKEQNRLGIPYDPIQWSTDQVLHWVVWVMKEFSMTDIDLTTLNISGRELCSLNQEDFFQRVPRGEILWSHLELLRKY [E7N] | -0.177 ± 0.14 |
| GYRKEQPRLGIPYDPIQWSTDQVLHWVVWVMKEFSMTDIDLTTLNISGRELCSLNQEDFFQRVPRGEILWSHLELLRKY [E7P] | -0.891 ± 0.097 |
| GYRKEQQRLGIPYDPIQWSTDQVLHWVVWVMKEFSMTDIDLTTLNISGRELCSLNQEDFFQRVPRGEILWSHLELLRKY [E7Q] | -0.072 ± 0.054 |
| GYRKEQRRLGIPYDPIQWSTDQVLHWVVWVMKEFSMTDIDLTTLNISGRELCSLNQEDFFQRVPRGEILWSHLELLRKY [E7R] | -0.141 ± 0.03 |
| GYRKEQSRLGIPYDPIQWSTDQVLHWVVWVMKEFSMTDIDLTTLNISGRELCSLNQEDFFQRVPRGEILWSHLELLRKY [E7S] | -0.163 ± 0.038 |
| GYRKEQTRLGIPYDPIQWSTDQVLHWVVWVMKEFSMTDIDLTTLNISGRELCSLNQEDFFQRVPRGEILWSHLELLRKY [E7T] | -0.09 ± 0.046 |
| GYRKEQVRLGIPYDPIQWSTDQVLHWVVWVMKEFSMTDIDLTTLNISGRELCSLNQEDFFQRVPRGEILWSHLELLRKY [E7V] | -0.172 ± 0.033 |
| GYRKEQWRLGIPYDPIQWSTDQVLHWVVWVMKEFSMTDIDLTTLNISGRELCSLNQEDFFQRVPRGEILWSHLELLRKY [E7W] | -0.288 ± 0.05 |
| GYRKEQYRLGIPYDPIQWSTDQVLHWVVWVMKEFSMTDIDLTTLNISGRELCSLNQEDFFQRVPRGEILWSHLELLRKY [E7Y] | -0.282 ± 0.085 |
| GYRKEQEALGIPYDPIQWSTDQVLHWVVWVMKEFSMTDIDLTTLNISGRELCSLNQEDFFQRVPRGEILWSHLELLRKY [R8A] | -0.056 ± 0.035 |
| GYRKEQECLGIPYDPIQWSTDQVLHWVVWVMKEFSMTDIDLTTLNISGRELCSLNQEDFFQRVPRGEILWSHLELLRKY [R8C] | -0.355 ± 0.064 |
